Numbering of substitutions follows the chain as printed. Names may count otherwise.
B1: WT DDR1-EGFP co-expressed with mCherry-WT DDR1 (dual-color FRAP) (receptor, human, UniProt Q08345 19-913, looked up)
chain: DADMKGHFDPAKCRYALGMQDRTIPDSDISASSSWSDSTAARHSRLESSDGDGAWCPAGSVFPKEEEYLQVDLQRLHLVALVGTQGRHAGGLGKEFSRSYRLRYSRDGRRWMGWKDRWGQEVISGNEDPEGVVLKDLGPPMVARLVRFYPRADRVMSVCLRVELYGCLWRDGLLSYTAPVGQTMYLSEAVYLNDSTYDGHTVGGLQYGGLGQLADGVVGLDDFRKSQELRVWPGYDYVGWSNHSFSSGYVEMEFEFDRLRAFQAMQVHCNNMHTLGARLPGGVECRFRRGPAMAWEGEPMRHNLGGNLGDPRARAVSVPLGGRVARFLQCRFLFAGPWLLFSEISFISDVVNNSSPALGGTFPPAPWWPPGPPPTNFSSLELEPRGQQPVAKAEGSPTAILIGCLVAIILLLLLIIALMLWRLHWRRLLSKAERRVLEEELTVHLSVPGDTILINNRPGPREPPPYQEPRPRGNPPHSAPCVPNGSALLLSNPAYRLLLATYARPPRGPGPPTPAWAKPTNTQAYSGDYMEPEKPGAPLLPPPPQNSVPHYAEADIVTLQGVTGGNTYAVPALPPGAVGDGPPRVDFPRSRLRFKEKLGEGQFGEVHLCEVDSPQDLVSLDFPLNVRKGHPLLVAVKILRPDATKNARNDFLKEVKIMSRLKDPNIIRLLGVCVQDDPLCMITDYMENGDLNQFLSAHQLEDKAAEGAPGDGQAAQGPTISYPMLLHVAAQIASGMRYLATLNFVHRDLATRNCLVGENFTIKIADFGMSRNLYAGDYYRVQGRAVLPIRWMAWECILMGKFTTASDVWAFGVTLWEVLMLCRAQPFGQLTDEQVIENAGEFFRDQGRQVYLSRPPACPQGLYELMLRCWSRESEQRPPFSQLHRFLAEDALNTV
notes: human DDR1, DDR1b isoform, from a plasmid with full-length DDR1b; Two differently tagged copies of the same protein in one cell: each copy has only one of the two fluorescent proteins; The mCherry copy is held by an anti-mCherry polyclonal antibody, the EGFP copy is the one whose mobility is read; also called DDR1 (WT)-GFP; mCherry-DDR1 (WT); source: EA.hy926 ECs, transfected, in living cells; …
B2: locked DDR1-EGFP (D189C/F364C) co-expressed with mCherry-locked DDR1 (dual-color FRAP) (receptor, human, UniProt Q08345 19-913, looked up)
chain: B1 chain with D171C, F346C
notes: human DDR1, DDR1b isoform, DS-like domain locked by two cysteines; Two differently tagged copies of the same mutant in one cell, as for m3; also called DS-like locked mutant; source: EA.hy926 ECs, transfected, in living cells; not shown: EGFP (on one copy); mCherry (on the other copy)
B3: YWHAE-Cherry recombinant protein (natural protein, UniProt P62258 1-255, looked up)
chain: MDDREDLVYQAKLAEQAERYDEMVESMKKVAGMDVELTVEERNLLSVAYKNVIGARRASWRIISSIEQKEENKGGEDKLKMIREYRQMVETELKLICCDILDVLDKHLIPAANTGESKVFYYKMKGDYHRYLAEFATGNDRKEAAENSLVAYKAASDIAMTELPPTHPIRLGLALNFSVFYYEILNSPDRACRLAKAAFDDAIAELDTLSEESYKDSTLIMQLLRDNLTLWTSDMQGDGEEQNKEALQDVEDENQ
notes: YWHAE (14-3-3ε), Uniprot No. P62258; also called recombinant YWHAE protein; source: bought: Dai-An Biotechnology (Wuhan); expressed by E. coli BL21 (DE3), purity >90% by SDS-PAGE; not shown: mCherry, C-terminal, kept

Legend:
[1] = molecular target: the molecule itself; test: dual-color FRAP with antibody immobilisation; EA.hy926 ECs co-expressing DDR1-EGFP and mCherry-DDR1, 5 min pre-shear; anti-mCherry polyclonal antibody immobilises the mCherry copy, lateral mobility of the EGFP copy read by FRAP
DDR1 (416-913aa)-EGFP = molecular target: T1, DDR1 (416-913aa)-EGFP (human, UniProt Q08345 416-913); test: cell-free droplet (phase separation) assay + turbidity; purified DDR1-C or DDR1-N (5 μM) incubated with varying concentrations of YWHAE-Cherry; 20 mM Tris-HCl pH 7.0, 75 mmol/L KCl, 1 mmol/L DTT, 4 °C 5-10 min, confocal imaging; turbidity at 600 nm with 5% PEG8000; conditions: both partners purified
T1 construct: human DDR1 (DDR1b), residues 416-913, containing the transmembrane and cytosolic domains; also called DDR1-C; source: E. coli Transetta (DE3), purified (Ni-NTA)

Binder	FRAP recovery ratio of the EGFP copy with the mCherry copy immobilised [1]	binding result (DDR1 (416-913aa)-EGFP)
B1	49.2 ± 9.6%	–
B2	67.6 ± 4%	–
B3	–	binds

From PMC10576099, “Endothelial discoidin domain receptor 1 senses flow to modulate YAP activation” (Nature Communications, 2023)
